In paper PMC7642414, “R-spondins are BMP receptor antagonists in Xenopus early embryonic development” (Nature Communications, 2020):
Blank lines part the entries; values can stand above or below the binder they belong to.

Tests used:
[1] = molecular target: T1, recombinant human RSPO2 (human, UniProt Q6UXX9 22-243); experiment: solid-phase in vitro binding assay (AP fusion read-out); Scatchard plot; RSPO2 recombinant protein (Peprotech 120-43) and BMPR1A^ECD-AP; conditions: one partner purified
T1 construct: R-spondin 2, human, recombinant protein; source: bought: Peprotech 120-43

[2] = molecular target: T2, recombinant human RSPO3 (human, UniProt Q9BXY4 22-272); experiment: solid-phase in vitro binding assay (AP fusion read-out); ternary complex: recombinant RSPO protein on plate-coated ZNRF3 Fc chimera (4-6 h), read out through BMPR1A^ECD-AP; conditions: both partners purified
T2 construct: R-spondin 3, human, recombinant protein; source: bought: Peprotech 120-44
T2 sequence (looked up): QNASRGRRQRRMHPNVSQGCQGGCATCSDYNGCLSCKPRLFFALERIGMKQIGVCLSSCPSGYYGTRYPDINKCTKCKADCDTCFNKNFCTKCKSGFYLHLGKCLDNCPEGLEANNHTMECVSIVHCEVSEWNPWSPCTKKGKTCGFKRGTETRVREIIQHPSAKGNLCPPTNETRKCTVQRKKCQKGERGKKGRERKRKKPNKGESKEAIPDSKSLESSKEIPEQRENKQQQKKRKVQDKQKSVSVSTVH

[3] = molecular target: T1, recombinant human RSPO2; experiment: as above; conditions: both partners purified

T1 sequence (Q6UXX9 22-243): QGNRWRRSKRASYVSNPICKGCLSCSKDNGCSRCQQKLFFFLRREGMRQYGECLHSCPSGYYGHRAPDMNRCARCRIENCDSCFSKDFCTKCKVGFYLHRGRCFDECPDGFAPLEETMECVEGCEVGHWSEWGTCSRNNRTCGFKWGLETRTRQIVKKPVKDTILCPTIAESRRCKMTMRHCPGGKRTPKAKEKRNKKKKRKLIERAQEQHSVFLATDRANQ

Kd [1]: ~4.8 nM
B1: BMPR1A^ECD-AP (domain or fragment, human, UniProt P36894 24-152, looked up)
chain: QNLDSMLHGTGMKSDSDQKKSENGVTLAPEDTLPFLKCYCSGHCPDDAINNTCITNGHCFAIIEEDDQGETTLASGCMKYEGSDFQCKDSPKAQLRRTIECCRTNLCNQYLQPTLPPVVIGPFFDGSIR
notes: Extracellular domain of BMPR1A/ALK3; also called extracellular domain of BMPR1A; source: HEK293T, transiently transfected, conditioned medium

binding result [2]: binds
binding result [3]: binds
B2: recombinant human ZNRF3 Fc Chimera protein (Fc fusion, UniProt Q9ULT6 56-219, looked up)
chain: KETAFVEVVLFESSPSGDYTTYTTGLTGRFSRAGATLSAEGEIVQMHPLGLCNNNDEEDLYEYGWVGVVKLEQPELDPKPCLTVLGKAKRAVQRGATAVIFDVSENPEAIDQLNQGSEDPLKRPVVYVKGADAIKLMNIVNKQKVARARIQHRPPRQPTEYFDM
notes: Zinc and ring finger 3 (ZNRF3), human, as Fc chimera; source: bought: R&D systems 7994-RF
